These binders were tested against biotinylated human LAP-TGFβ1 (Example 14) (human, UniProt P01137 30-390, biotinylated, sites not stated) (assay: BLI, antigen on tip, CHO supernatant; ratio to wild type).
Experimental: A total of 49 single alanine substitutions were made in the heavy and light chain CDRs of the antibody to identify critical residues for human LAP-TGFβ1 binding. In addition, residue A25 in the light chain was substituted with glycine. Plasmid DNA for these variants was transfected into ExpiCHO cells in 1 mL cultures on 24-well plates, along with wells containing no DNA (negative control) and wells transfected with DNA for the wild-type antibody (positive control). IgG concentrations in each well were determined by binding to Protein A-functionalized tips. Tips were dipped into wells containing the supernatants from each culture. IgG concentrations were determined by comparing the rate of signal change for each well against the rate of signal change for a standard curve of purified 20E6_H0.2aL1_hIgG1 antibody diluted into ExpiCHO media. CHO supernatants were diluted to 0.6 μg/mL in media. A streptavidin-functionalized tip was equilibrated in binding buffer (10 mM sodium phosphate, 150 mM sodium chloride, 1% (w/v) bovine serum albumin, 0.05% (w/v) sodium azide, pH 7.4) and then dipped in a 5 μg/mL solution of biotinylated human LAP-TGFβ1 in binding buffer for 60 seconds to load the tip with antigen. The antigen-loaded tip was then washed in binding buffer and placed in the diluted CHO supernatant. The antigen was allowed to bind to antibody for 5 minutes (association phase), and then the tip was moved to binding buffer (dissociation phase). The association and dissociation phases were fit to a 1:1 binding model to determine binding rate constants.

Sequence of biotinylated human LAP-TGFβ1 (Example 14) (P01137 30-390 limits assumed): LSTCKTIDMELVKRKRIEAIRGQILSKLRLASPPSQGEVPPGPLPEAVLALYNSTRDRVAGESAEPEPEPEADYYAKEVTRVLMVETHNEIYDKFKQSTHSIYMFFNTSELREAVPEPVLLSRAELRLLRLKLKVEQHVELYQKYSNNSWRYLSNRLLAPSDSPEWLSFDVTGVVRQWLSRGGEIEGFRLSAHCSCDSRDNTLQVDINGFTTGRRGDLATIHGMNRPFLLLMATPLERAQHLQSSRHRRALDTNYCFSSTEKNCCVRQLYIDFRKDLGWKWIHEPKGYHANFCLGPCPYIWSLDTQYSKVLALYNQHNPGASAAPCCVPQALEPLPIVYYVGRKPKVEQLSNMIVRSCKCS

Binder | KD,WT/KD,Ala
20E6_H0.2aL1_hIgG1 VH_D52A (antibody, V domains shown) VH: EVQLVQSGAEVKKPGASVKVSCKASGYTFTSYWMHWVRQAPGQGLEWMGRIAPQSGGIKYAQKFQGRATLTVDTSTSTAYMELSRLRSDDTAVYYCARWDYGGYFDVWGQGTLVTVSS VL: DIQMTQSPSSLSASVGDRVTITCRASQDITNYLNWYQQKPGKAVKLLIYYTSRLHSGVPSRFSGSGSGTDYTLTISSLQPEDFATYFCQQGDTLPWTFGQGTKLEIKR | 0.71
20E6_H0.2aL1_hIgG1 VH_M34A (antibody, V domains shown) VH: EVQLVQSGAEVKKPGASVKVSCKASGYTFTSYWAHWVRQAPGQGLEWMGRIDPQSGGIKYAQKFQGRATLTVDTSTSTAYMELSRLRSDDTAVYYCARWDYGGYFDVWGQGTLVTVSS VL: DIQMTQSPSSLSASVGDRVTITCRASQDITNYLNWYQQKPGKAVKLLIYYTSRLHSGVPSRFSGSGSGTDYTLTISSLQPEDFATYFCQQGDTLPWTFGQGTKLEIKR | 0.84
20E6_H0.2aL1_hIgG1 VH_H35A (antibody, V domains shown) VH: EVQLVQSGAEVKKPGASVKVSCKASGYTFTSYWMAWVRQAPGQGLEWMGRIDPQSGGIKYAQKFQGRATLTVDTSTSTAYMELSRLRSDDTAVYYCARWDYGGYFDVWGQGTLVTVSS VL: DIQMTQSPSSLSASVGDRVTITCRASQDITNYLNWYQQKPGKAVKLLIYYTSRLHSGVPSRFSGSGSGTDYTLTISSLQPEDFATYFCQQGDTLPWTFGQGTKLEIKR | 2.07
20E6_H0.2aL1_hIgG1 VH_G56A (antibody, V domains shown) VH: EVQLVQSGAEVKKPGASVKVSCKASGYTFTSYWMHWVRQAPGQGLEWMGRIDPQSAGIKYAQKFQGRATLTVDTSTSTAYMELSRLRSDDTAVYYCARWDYGGYFDVWGQGTLVTVSS VL: DIQMTQSPSSLSASVGDRVTITCRASQDITNYLNWYQQKPGKAVKLLIYYTSRLHSGVPSRFSGSGSGTDYTLTISSLQPEDFATYFCQQGDTLPWTFGQGTKLEIKR | 1.62
20E6_H0.2aL1_hIgG1 VH_Q54A (antibody, V domains shown) VH: EVQLVQSGAEVKKPGASVKVSCKASGYTFTSYWMHWVRQAPGQGLEWMGRIDPASGGIKYAQKFQGRATLTVDTSTSTAYMELSRLRSDDTAVYYCARWDYGGYFDVWGQGTLVTVSS VL: DIQMTQSPSSLSASVGDRVTITCRASQDITNYLNWYQQKPGKAVKLLIYYTSRLHSGVPSRFSGSGSGTDYTLTISSLQPEDFATYFCQQGDTLPWTFGQGTKLEIKR | 0.67
20E6_H0.2aL1_hIgG1 VH_G57A (antibody, V domains shown) VH: EVQLVQSGAEVKKPGASVKVSCKASGYTFTSYWMHWVRQAPGQGLEWMGRIDPQSGAIKYAQKFQGRATLTVDTSTSTAYMELSRLRSDDTAVYYCARWDYGGYFDVWGQGTLVTVSS VL: DIQMTQSPSSLSASVGDRVTITCRASQDITNYLNWYQQKPGKAVKLLIYYTSRLHSGVPSRFSGSGSGTDYTLTISSLQPEDFATYFCQQGDTLPWTFGQGTKLEIKR | 0.37
20E6_H0.2aL1_hIgG1 VH_T30A (antibody, V domains shown) VH: EVQLVQSGAEVKKPGASVKVSCKASGYTFASYWMHWVRQAPGQGLEWMGRIDPQSGGIKYAQKFQGRATLTVDTSTSTAYMELSRLRSDDTAVYYCARWDYGGYFDVWGQGTLVTVSS VL: DIQMTQSPSSLSASVGDRVTITCRASQDITNYLNWYQQKPGKAVKLLIYYTSRLHSGVPSRFSGSGSGTDYTLTISSLQPEDFATYFCQQGDTLPWTFGQGTKLEIKR | 0.94
20E6_H0.2aL1_hIgG1 VH_F29A (antibody, V domains shown) VH: EVQLVQSGAEVKKPGASVKVSCKASGYTATSYWMHWVRQAPGQGLEWMGRIDPQSGGIKYAQKFQGRATLTVDTSTSTAYMELSRLRSDDTAVYYCARWDYGGYFDVWGQGTLVTVSS VL: DIQMTQSPSSLSASVGDRVTITCRASQDITNYLNWYQQKPGKAVKLLIYYTSRLHSGVPSRFSGSGSGTDYTLTISSLQPEDFATYFCQQGDTLPWTFGQGTKLEIKR | 1.16
20E6_H0.2aL1_hIgG1 VH_P53A (antibody, V domains shown) VH: EVQLVQSGAEVKKPGASVKVSCKASGYTFTSYWMHWVRQAPGQGLEWMGRIDAQSGGIKYAQKFQGRATLTVDTSTSTAYMELSRLRSDDTAVYYCARWDYGGYFDVWGQGTLVTVSS VL: DIQMTQSPSSLSASVGDRVTITCRASQDITNYLNWYQQKPGKAVKLLIYYTSRLHSGVPSRFSGSGSGTDYTLTISSLQPEDFATYFCQQGDTLPWTFGQGTKLEIKR | 0.87
20E6_H0.2aL1_hIgG1 VH_I58A (antibody, V domains shown) VH: EVQLVQSGAEVKKPGASVKVSCKASGYTFTSYWMHWVRQAPGQGLEWMGRIDPQSGGAKYAQKFQGRATLTVDTSTSTAYMELSRLRSDDTAVYYCARWDYGGYFDVWGQGTLVTVSS VL: DIQMTQSPSSLSASVGDRVTITCRASQDITNYLNWYQQKPGKAVKLLIYYTSRLHSGVPSRFSGSGSGTDYTLTISSLQPEDFATYFCQQGDTLPWTFGQGTKLEIKR | 0.52
20E6_H0.2aL1_hIgG1 VH_I51A (antibody, V domains shown) VH: EVQLVQSGAEVKKPGASVKVSCKASGYTFTSYWMHWVRQAPGQGLEWMGRADPQSGGIKYAQKFQGRATLTVDTSTSTAYMELSRLRSDDTAVYYCARWDYGGYFDVWGQGTLVTVSS VL: DIQMTQSPSSLSASVGDRVTITCRASQDITNYLNWYQQKPGKAVKLLIYYTSRLHSGVPSRFSGSGSGTDYTLTISSLQPEDFATYFCQQGDTLPWTFGQGTKLEIKR | 0.73
20E6_H0.2aL1_hIgG1 VH_W33A (antibody, V domains shown) VH: EVQLVQSGAEVKKPGASVKVSCKASGYTFTSYAMHWVRQAPGQGLEWMGRIDPQSGGIKYAQKFQGRATLTVDTSTSTAYMELSRLRSDDTAVYYCARWDYGGYFDVWGQGTLVTVSS VL: DIQMTQSPSSLSASVGDRVTITCRASQDITNYLNWYQQKPGKAVKLLIYYTSRLHSGVPSRFSGSGSGTDYTLTISSLQPEDFATYFCQQGDTLPWTFGQGTKLEIKR | 0.12
20E6_H0.2aL1_hIgG1 VH_D106A (antibody, V domains shown) VH: EVQLVQSGAEVKKPGASVKVSCKASGYTFTSYWMHWVRQAPGQGLEWMGRIDPQSGGIKYAQKFQGRATLTVDTSTSTAYMELSRLRSDDTAVYYCARWDYGGYFAVWGQGTLVTVSS VL: DIQMTQSPSSLSASVGDRVTITCRASQDITNYLNWYQQKPGKAVKLLIYYTSRLHSGVPSRFSGSGSGTDYTLTISSLQPEDFATYFCQQGDTLPWTFGQGTKLEIKR | 0.24
20E6_H0.2aL1_hIgG1 VH_V107A (antibody, V domains shown) VH: EVQLVQSGAEVKKPGASVKVSCKASGYTFTSYWMHWVRQAPGQGLEWMGRIDPQSGGIKYAQKFQGRATLTVDTSTSTAYMELSRLRSDDTAVYYCARWDYGGYFDAWGQGTLVTVSS VL: DIQMTQSPSSLSASVGDRVTITCRASQDITNYLNWYQQKPGKAVKLLIYYTSRLHSGVPSRFSGSGSGTDYTLTISSLQPEDFATYFCQQGDTLPWTFGQGTKLEIKR | 1.08
20E6_H0.2aL1_hIgG1 VH_S31A (antibody, V domains shown) VH: EVQLVQSGAEVKKPGASVKVSCKASGYTFTAYWMHWVRQAPGQGLEWMGRIDPQSGGIKYAQKFQGRATLTVDTSTSTAYMELSRLRSDDTAVYYCARWDYGGYFDVWGQGTLVTVSS VL: DIQMTQSPSSLSASVGDRVTITCRASQDITNYLNWYQQKPGKAVKLLIYYTSRLHSGVPSRFSGSGSGTDYTLTISSLQPEDFATYFCQQGDTLPWTFGQGTKLEIKR | 0.6
20E6_H0.2aL1_hIgG1 VH_T28A (antibody, V domains shown) VH: EVQLVQSGAEVKKPGASVKVSCKASGYAFTSYWMHWVRQAPGQGLEWMGRIDPQSGGIKYAQKFQGRATLTVDTSTSTAYMELSRLRSDDTAVYYCARWDYGGYFDVWGQGTLVTVSS VL: DIQMTQSPSSLSASVGDRVTITCRASQDITNYLNWYQQKPGKAVKLLIYYTSRLHSGVPSRFSGSGSGTDYTLTISSLQPEDFATYFCQQGDTLPWTFGQGTKLEIKR | 0.97
20E6_H0.2aL1_hIgG1 VH_G26A (antibody, V domains shown) VH: EVQLVQSGAEVKKPGASVKVSCKASAYTFTSYWMHWVRQAPGQGLEWMGRIDPQSGGIKYAQKFQGRATLTVDTSTSTAYMELSRLRSDDTAVYYCARWDYGGYFDVWGQGTLVTVSS VL: DIQMTQSPSSLSASVGDRVTITCRASQDITNYLNWYQQKPGKAVKLLIYYTSRLHSGVPSRFSGSGSGTDYTLTISSLQPEDFATYFCQQGDTLPWTFGQGTKLEIKR | 1.4
20E6_H0.2aL1_hIgG1 VH_K59A (antibody, V domains shown) VH: EVQLVQSGAEVKKPGASVKVSCKASGYTFTSYWMHWVRQAPGQGLEWMGRIDPQSGGIAYAQKFQGRATLTVDTSTSTAYMELSRLRSDDTAVYYCARWDYGGYFDVWGQGTLVTVSS VL: DIQMTQSPSSLSASVGDRVTITCRASQDITNYLNWYQQKPGKAVKLLIYYTSRLHSGVPSRFSGSGSGTDYTLTISSLQPEDFATYFCQQGDTLPWTFGQGTKLEIKR | 0.69
20E6_H0.2aL1_hIgG1 VH_D100A (antibody, V domains shown) VH: EVQLVQSGAEVKKPGASVKVSCKASGYTFTSYWMHWVRQAPGQGLEWMGRIDPQSGGIKYAQKFQGRATLTVDTSTSTAYMELSRLRSDDTAVYYCARWAYGGYFDVWGQGTLVTVSS VL: DIQMTQSPSSLSASVGDRVTITCRASQDITNYLNWYQQKPGKAVKLLIYYTSRLHSGVPSRFSGSGSGTDYTLTISSLQPEDFATYFCQQGDTLPWTFGQGTKLEIKR | 0.28
20E6_H0.2aL1_hIgG1 VH_S55A (antibody, V domains shown) VH: EVQLVQSGAEVKKPGASVKVSCKASGYTFTSYWMHWVRQAPGQGLEWMGRIDPQAGGIKYAQKFQGRATLTVDTSTSTAYMELSRLRSDDTAVYYCARWDYGGYFDVWGQGTLVTVSS VL: DIQMTQSPSSLSASVGDRVTITCRASQDITNYLNWYQQKPGKAVKLLIYYTSRLHSGVPSRFSGSGSGTDYTLTISSLQPEDFATYFCQQGDTLPWTFGQGTKLEIKR | 0.96

— patent US20220017612A1 (TILOS THERAPEUTICS, published 2022)
